Target: fusion protein F of hMPV A2-GFP (CAN97-83) on infected cells (human metapneumovirus A2 (CAN97-83))

B1: sdHMPV12 (VHH)
VHH: QVQLQESGGGLVQPGGSLRLSCAASGVSLAWYAIGWFRQAPGKDREGISCISASDDSTYYRDSVKGRVTISRDNGRNTVLLQMNSLKPEDTAVYYCATLRANYCSGPPTLGPYLGQGTQVTVSS
  other: 9 nM

Source: publication PMC10790764
